The values below come from patent US20260159594A1 (UNIVERSITY OF TOKYO, published 2026).

This assay concerns the target T1, human IL13RA2 (human, UniProt Q14627 27-380).
T1 construct: also called interleukin 13 receptor subunit alpha 2; 13R2
T1 sequence: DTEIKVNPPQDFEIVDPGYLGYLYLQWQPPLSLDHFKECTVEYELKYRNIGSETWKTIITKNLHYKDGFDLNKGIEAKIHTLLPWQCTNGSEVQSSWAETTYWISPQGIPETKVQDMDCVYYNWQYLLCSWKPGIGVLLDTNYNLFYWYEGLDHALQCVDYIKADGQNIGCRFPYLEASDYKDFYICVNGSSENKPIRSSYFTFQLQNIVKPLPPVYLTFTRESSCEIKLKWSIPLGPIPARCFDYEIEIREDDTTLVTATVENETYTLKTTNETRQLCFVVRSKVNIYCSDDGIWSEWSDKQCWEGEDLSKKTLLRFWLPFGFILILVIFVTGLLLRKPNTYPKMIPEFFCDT
In words: flow cytometry on U87(+), H1299(+) and RPMI7951 cells; Alexa Fluor 488-labeled anti-mouse IgG secondary antibody. (In general: Flow cytometry measures light scatter and fluorescence of single cells or particles in a stream.)

Procedure: Flow cytometry analysis was carried out using LSRFortessa (BD Biosciences).

B1: 4E6 antibody (antibody, V domains shown)
VH: EVKLEESGPGLVAPSQSLSIACTVSGFSLTRHGIHWVRQPPGKNLEWLGVIWAGGSTNYNSALMSRLSIIKDNSKSQVFLKMNSLQTVDTAMYYCARDHFDSFDYWGQGTTLTVSS
VL: DIVLTQTPAIMSASLGERVTMTCTASSSVSSSYLHWYQQKPGSSPKLWIYSTSNLASGVPLRFSGSGSGTSYSLTISSMEAEDAATYYCHQYHRSPLTFGAGTKLELKR
notes: also called anti-IL13RA2 antibody; antibody produced by hybridoma NITE BP-03673
Take B1: the binding result was “binds”.
